US20180208655A1 (VENTANA MEDICAL SYSTEMS, published 2018)

Target: T1, human GPNMB (transmembrane glycoprotein NMB) (human, UniProt Q14956 23-572)
T1 construct: Endogenous GPNMB in human FFPE tissues and cells (IHC), A375 cell lysate (Western blot) and A375 cells (flow cytometry)
T1 sequence: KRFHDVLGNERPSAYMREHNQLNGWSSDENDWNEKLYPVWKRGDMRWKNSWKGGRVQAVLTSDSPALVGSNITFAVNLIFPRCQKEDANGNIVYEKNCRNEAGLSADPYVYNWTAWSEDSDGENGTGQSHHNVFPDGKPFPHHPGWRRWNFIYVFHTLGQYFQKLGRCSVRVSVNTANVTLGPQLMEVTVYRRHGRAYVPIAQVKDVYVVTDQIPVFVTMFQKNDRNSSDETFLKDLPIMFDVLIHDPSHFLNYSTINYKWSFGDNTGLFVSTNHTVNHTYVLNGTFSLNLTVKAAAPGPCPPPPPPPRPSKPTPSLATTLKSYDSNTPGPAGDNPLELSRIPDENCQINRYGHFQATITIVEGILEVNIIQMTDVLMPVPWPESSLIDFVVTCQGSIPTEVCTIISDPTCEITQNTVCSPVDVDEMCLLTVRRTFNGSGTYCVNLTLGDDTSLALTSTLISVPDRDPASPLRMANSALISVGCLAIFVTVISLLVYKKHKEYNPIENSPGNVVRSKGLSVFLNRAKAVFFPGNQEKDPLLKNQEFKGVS
Test: IHC screening of recombinantly expressed clones (after ELISA screening on the GPNMB antigen)

B1: rabbit anti-human GPNMB monoclonal antibody (SP299) (antibody, V domains shown)
VH: QSLEESGGGLVKPGGTLTLICTVSGIDLSTYGVIWVRQAPREGLEWIGFITRSGTTDYAAWANGRFTISKTSTTVDLKIASLTAADTATYFCARGGYRFNLWGHGTLVTVSS
VL: DPVMTQTPASVSEPVGGTVTIKCQASQSIYSYLAWYQQKPGQPPKLLIYKASSLESGVPSRLSGSGSGTEFTLTISDLECADAATYYCQGGYISTTVSFGYGFGGGTEVVVK
notes: also called anti-GPNMB antibody SP299; Anti-GPNMB monoclonal antibody (SP299)
- binding result: binds
